From patent publication US20160257942, “MODIFIED HELICASES” (Oxford Nanopore Technologies Ltd., published 2016)

Target: T1, T4 Dda E94C/A360C (Enterobacteria phage T4, UniProt P32270 SEQ:1-439, E94C/A360C/(ΔM1)G1G2)
T1 sequence: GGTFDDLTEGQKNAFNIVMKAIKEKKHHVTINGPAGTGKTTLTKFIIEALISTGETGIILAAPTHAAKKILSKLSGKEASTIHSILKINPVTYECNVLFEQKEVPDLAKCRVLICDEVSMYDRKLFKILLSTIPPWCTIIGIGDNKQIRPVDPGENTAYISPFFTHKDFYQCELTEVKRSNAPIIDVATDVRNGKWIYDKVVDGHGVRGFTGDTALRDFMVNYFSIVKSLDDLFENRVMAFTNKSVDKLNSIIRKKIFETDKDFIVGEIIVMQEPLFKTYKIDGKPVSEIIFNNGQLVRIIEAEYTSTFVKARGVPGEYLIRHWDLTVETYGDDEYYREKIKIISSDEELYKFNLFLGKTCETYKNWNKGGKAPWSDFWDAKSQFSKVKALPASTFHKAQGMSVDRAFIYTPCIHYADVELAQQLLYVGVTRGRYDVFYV
Assay: FP; 25 mM potassium phosphate, 151.5 mM KCl, pH 8.0, 10 mM MgCl2, 25 C, 60 min; exact value only in figure
Conditions: label: FAM on thymine 37
Procedure: Two custom fluorescent substrates were used to assess the ability of T4 Dda—E94C/A360C helicase to bind to linear (SEQ ID NO: 64) and circular (SEQ ID NO: 65) single-stranded DNA. […] As the helicase bound to either fluorescent substrate in a buffered solution (25 mM potassium phosphate, 151.5 mM KCl, pH8.0, 10 mM MgCl₂), the fluorescence anisotropy (a property relating to the speed of tumbling of the DNA substrate in solution) increased. The lower the amount of helicase needed to effect an increase in anisotropy, the tighter the binding affinity between the DNA and helicase (FIG. 3).
T4 Dda—E94C/A360C was buffer exchanged into the binding buffer (25 mM potassium phosphate, 151.5 mM KCl, pH8.0, 10 mM MgCl₂) and then serially diluted over a concentration range of 0.02 nM to 750 nM. Each sample concentration was then mixed with linear or circular single-stranded DNA (1 nM of SEQ ID NO: 64 or 65) giving a final concentration range of T4 Dda—E94C/A360C of 0.01 nM to 375 nM and the fluorescence anisotropy assessed over the course of 60 min at 25° C.

With TTTTTTTTTTTTTTTTTTTTTTTTTTTTTTTTTTTTTTTTTTTT (ssDNA) [44 nt linear ssDNA] the Kd was < 15 nM.
